The results in this text go back to article PMC6497169 (Nature microbiology, 2017).

Assay [1] concerns the target T1, IcmW (L. pneumophila (Philadelphia-1), UniProt Q5ZS31 1-151).
T1 sequence: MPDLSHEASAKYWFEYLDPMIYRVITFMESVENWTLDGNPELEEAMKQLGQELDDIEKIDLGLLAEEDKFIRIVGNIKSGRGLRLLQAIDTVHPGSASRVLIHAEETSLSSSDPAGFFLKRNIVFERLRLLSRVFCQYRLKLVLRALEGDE
As to the kind of experiment: crystal structure.

Assay [2] has as its target T2, DotN(7–214) (L. pneumophila (Philadelphia-1), UniProt Q5ZYB7 7-214).
T2 sequence: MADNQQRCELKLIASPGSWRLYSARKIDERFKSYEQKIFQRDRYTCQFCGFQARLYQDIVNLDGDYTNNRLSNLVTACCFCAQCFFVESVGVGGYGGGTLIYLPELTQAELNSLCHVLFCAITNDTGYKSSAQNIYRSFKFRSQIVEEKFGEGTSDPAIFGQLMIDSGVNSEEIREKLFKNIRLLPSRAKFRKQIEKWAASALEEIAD
Put plainly: crystal structure.

B1: DotL(656–783) (domain or fragment)
chain: GQNEPEPVEDIVEEEVEGALTIFSKLRIDPNAPPILVADKEVFSEPLLPINETRNQMITIERLAGAKDKYAGTVANELIKDFQIATSYPPEERDVIDVQELTGIIRDLSAKISAEREKANKKAAEELT
Take B1: in assay [1], the binding result is listed as “binds”.

B2: DotL(590–659) (domain or fragment)
chain: VEPPPDDYLMKLQKQLASFQSILESGDLSINKAVENEEITLISKALKESTIVEPIERGVAALIAFHGQNE
For the molecule B2, in assay [2], the binding result is “binds”.
